The record followed here is PMC4243253 (Biochemical Journal, 2014).

This data set deals with the molecule itself. The data set can be described thus: SEC.

B1: Bacillus anthracis kynurenine formamidase KynB (enzyme)
chain: MKTSKWIDISQPLNNDIATWPGDTPFSYEVLWSKEESGSVNVGKLTMSIHTGTHIDAPFHFDNDGKKVLDLDIQVYVGPTRIIDVSNLESIGKKELEKFHLEGVERLLLRTSSHGKANEFPDIIPHLRADIAPFLSEKGIRLIGVDVPSVDPLDDKELAAHHQLFKHSIHILENVVLDHVADGDYELIALPLALSDADGSPVRAVIRPI
notes: also called BaKynB; KFase
On to B1, for which the “stoichiometry N” value was determined as 2.
